From patent US20240352118A1 come the findings set out here.

As a reminder, the IC50 is the concentration at which inhibition is half-maximal. A high value points to lower potency. A word on the Kd: it is a measure of binding affinity in units of concentration. Low values mean tighter binding, high ones weaker binding. The EC50 is the concentration needed to bring the measured effect to its halfway point.

The target in assay [1] is human TIGIT on cells (human) (UniProt Q495A1). Briefly: flow cytometry, blocking of human CD155-mouse IgG2a Fc (2 ug/mL) binding to CHO-huTIGIT cells. Background: In flow cytometry, cells or beads pass a laser one at a time.
Chain of human TIGIT on cells (human) (Q495A1 22-244): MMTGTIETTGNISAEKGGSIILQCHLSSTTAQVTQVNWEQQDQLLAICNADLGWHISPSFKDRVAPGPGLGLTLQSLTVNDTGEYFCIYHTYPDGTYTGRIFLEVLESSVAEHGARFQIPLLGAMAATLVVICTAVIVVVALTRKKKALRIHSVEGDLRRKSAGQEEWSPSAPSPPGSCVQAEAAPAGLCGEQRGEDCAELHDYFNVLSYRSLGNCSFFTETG
The target in assay [2] is cynomolgus TIGIT-his protein (cynomolgus monkey). Briefly: BLI (ForteBio), IgG on AHQ sensor, 100 nM TIGIT-his, monovalent, 1:1 model.
Chain of cynomolgus TIGIT-his protein (cynomolgus monkey) (chain, as listed by the source): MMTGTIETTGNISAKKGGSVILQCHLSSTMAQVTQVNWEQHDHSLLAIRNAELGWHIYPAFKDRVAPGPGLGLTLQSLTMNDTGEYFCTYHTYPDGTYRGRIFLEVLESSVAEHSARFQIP
Assay [3] has as its target human TIGIT-his protein (human) (UniProt Q495A1). The assay is described as above.
For assay [4], the target named is human TIGIT on cells (human) (UniProt Q495A1). Briefly: flow cytometry on CHO-huTIGIT cells.
The target in assay [5] is cynomolgus TIGIT on cells (cynomolgus monkey). The assay can be described thus: flow cytometry on CHO-cynoTIGIT cells.
Chain of cynomolgus TIGIT on cells (cynomolgus monkey) (chain, as listed by the source): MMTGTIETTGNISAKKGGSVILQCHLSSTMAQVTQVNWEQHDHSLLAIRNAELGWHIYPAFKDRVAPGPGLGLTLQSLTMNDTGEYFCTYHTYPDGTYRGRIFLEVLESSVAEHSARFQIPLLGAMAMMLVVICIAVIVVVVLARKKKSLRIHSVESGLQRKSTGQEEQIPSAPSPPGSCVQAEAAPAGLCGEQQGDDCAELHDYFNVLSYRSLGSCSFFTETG
Assay [6] has as its target human TIGIT on cells (human) (UniProt Q495A1). Briefly: flow cytometry on activated human primary T cells (CD3/CD28 beads + IL-2, 48 h), fluorescent secondary antibody; y axis Positive cells(%), x axis Concentration(nM); EC50 from the table drawn under the curves.

Chain of human TIGIT-his protein (human) (Q495A1 22-141): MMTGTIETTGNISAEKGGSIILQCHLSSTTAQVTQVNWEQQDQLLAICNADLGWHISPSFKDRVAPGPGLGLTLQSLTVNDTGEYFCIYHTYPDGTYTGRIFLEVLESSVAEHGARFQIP

Turning to Tiragolumab (antibody), in assay [1], the 50% inhibitory concentration (IC50) is 0.63 nM. Further, the Kd in assay [2] was 3.5 nM; in assay [3] it was 0.87 nM. The EC50 amounted to 1.35 nM in assay [4], 4.18 nM in assay [5] and 0.274 nM in assay [6].
